Assay results: patent US5708158, “Nuclear factors and binding assays” (Tularik Inc., dated 1998)

Molecular target: T1, NFATc-589 (translated in vitro) (human)
T1 chain: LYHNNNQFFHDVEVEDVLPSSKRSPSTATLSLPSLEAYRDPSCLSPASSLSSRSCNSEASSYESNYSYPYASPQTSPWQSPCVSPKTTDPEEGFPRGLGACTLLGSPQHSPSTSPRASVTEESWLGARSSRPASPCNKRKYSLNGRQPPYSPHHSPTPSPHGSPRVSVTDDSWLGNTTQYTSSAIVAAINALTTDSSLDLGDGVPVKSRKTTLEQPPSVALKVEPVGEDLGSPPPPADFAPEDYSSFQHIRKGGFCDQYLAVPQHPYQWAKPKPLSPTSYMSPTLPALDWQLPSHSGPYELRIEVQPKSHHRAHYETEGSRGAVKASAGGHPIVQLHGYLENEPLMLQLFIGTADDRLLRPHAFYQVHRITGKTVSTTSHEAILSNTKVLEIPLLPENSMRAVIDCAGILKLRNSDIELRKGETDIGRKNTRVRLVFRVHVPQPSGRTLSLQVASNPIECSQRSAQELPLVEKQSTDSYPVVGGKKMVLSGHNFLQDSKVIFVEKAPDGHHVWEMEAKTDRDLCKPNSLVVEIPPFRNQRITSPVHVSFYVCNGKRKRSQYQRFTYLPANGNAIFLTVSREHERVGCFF
Test: gel mobility shift assay with two co-translated NFATc versions of different size; test for dimers on DNA
Excerpt: After determining that NFAT rel domains were monomers in solution, we then considered the possibility that NFAT proteins might form dimers when bound to DNA. To address this question we carried out gel mobility shift assays with two different sized versions of NFATc translated in vitro (Hope and Struhl 1987). The shorter version contains the rel similarity region and a small amount of flanking residues and is referred to as NFATc-309. This construct is equivalent to the one that was expressed in *E. coli*. The larger version, NFATc-589, contains additional N-terminal sequences. When expressed individually in a rabbit reticulocyte lysate both versions of NFATc were active and produced protein-DNA complexes with different mobilities. When the two different NFATc proteins were mixed by co-translation the same protein-DNA complexes were apparent and no intermediate species was detectable, as would be expected if the proteins were forming dimers on the DNA.
Electrophoretic mobility shift assays were performed with the indicated amounts of proteins in 50 mM KCl, 25 mM HEPES, 0.05 mM EDTA, 5% glycerol, 1 mM DTT with […] of poly(dI-dC) and 100 ng of BSA. The binding reactions and electrophoresis were carried out at room temperature. The samples were run on a 5% polyacrylamide, 0.5× TBE gel at 200 V.

binding result: no binding
B1: NFATc-309 (translated in vitro) (other)
chain: MSPTLPALDWQLPSHSGPYELRIEVQPKSHHRAHYETEGSRGAVKASAGGHPIVQLHGYLENEPLMLQLFIGTADDRLLRPHAFYQVHRITGKTVSTTSHEAILSNTKVLEIPLLPENSMRAVIDCAGILKLRNSDIELRKGETDIGRKNTRVRLVFRVHVPQPSGRTLSLQVASNPIECSQRSAQELPLVEKQSTDSYPVVGGKKMVLSGHNFLQDSKVIFVEKAPDGHHVWEMEAKTDRDLCKPNSLVVEIPPFRNQRITSPVHVSFYVCNGKRKRSQYQRFTYLPANGNAIFLTVSREHERVGCFF
